Laboratory results taken from the DeepSol protein solubility set.

Assay: soluble on expression in E. coli; label from the status in PepcDB or PDB records

Sequence | soluble on expression in E. coli
MKTTDLFSTLENNILRNSLDSTTKDKLLSNLSLLRKASLNILITGSTGSGKSSTINALFDMTVAQVGIDSDPHTESVQCYHLNNLVLWDTPGLGDGIDEDKKHVQAIKQLLNKRDDHGQLAIDLVLVILDGGSRDLGTPLRLINDIVIPQLGDDAEKRLIVAVNQADVALKGPESWNYSDNLPTDKAKAFLEKQQNSIARRIHKATQINVKTLYFVAGYSDGVNRQRPYNLSKLLYTIVEILPNNKRVMLANRTISNDADNWKDNDASDYNKKTTLSLWEAIVETTLQGASIGSDIGSIFGKPGEILGKVVGSVAGLFFGGLRYTFGFLEHHHHHH | soluble
MILINKRAEKQDYQTILAIWEKSVIVTHDFLTAEDRQFYKEQIPLFLDNVELFLWFAGEEVIGFSGTSERELDMLFLDPVATGNGYGSQILGWLIENKRINLVDVNEQNENATRFYLKHGFVVSSRSDLDGFGKPYPILQLQLKERVNGV | soluble
MKNLVEEKEAFRFGVSGDIGSFSEEAALLYARKKGLNAHLVHLLDMEGVLNAIENETIDLGILPVVNLLGGLVKPAFQAMGKYSFTPIDEIWHDINQCLLVKTNTQNHKITHIVSHPQGFAQCKKFLRNKFKNAKKIEWIDTAKAAKDLAEGILPPHAAVIASARCAPLYDLKISARNIQDSHLNRTAFILVKKLEHHHHHH | not soluble
SFFTCGPNEAMVVSGFCRSPPVMVAGGRVFVLPCIQQIQRISLNTLTLNVKSEKVYTRHGVPISVTGIAQVKIQGQNKEMLAAACQMFLGKTEAEIAHIALETLEGHQRAIMAHMTVEEIYKDRQKFSEQVFKVASSDLVNMGISVVSYTLKDIHDDQDYLHSLGKARTAQVQKDARIGEAEAKRDAGIREAKAKQEKVSAQYLSEIEMAKAQRDYELKKAAYDIEVNTRRAQADLAYQLQVAKTKQQIEEQRVQVQVVERAQQVAVQEQEIARREKELEARVRKPAEAERYKLERLAEAEKSQLIMQAEAEAASVRMRGEAEAFAIGARARAEAEQMAKKAEAFQLYQEAAQLDMLLEKLPQVAEEISGPLTSANKITLVSSGSGTMGAAKVTGEVLDILTRLPESVERLTGVSISQVNHKPLRTA | not soluble
MAHHHHHHMRRWLRNVRGGLLHPRAARLMVSCGKTHGLHMVSTVSRNTETEDEEIRDNESFPHQDDDDESVTEISEEMMRSLPKAPPKLRSAGSLLSTEEQEQLTRMIFKAHYAGEGMGENDRAMWYQSALEIHWLEEWAYEEFDGQTQRDVARRAVKKAVLQRVDLHKPLAYIIGHQPFYGCDIRCSPPLLCPRPETEMWTHWLVRTWLSKIPETTQPLRVLDMCCGTGCVGIAIAKHVPSAQVTAVDILDEAIGASEENAKLNGLEASRFCTLKSDMFESFLVSNSGSLTGEDTKLDLKKKEPAAEHAGSFDIIVSNPPYVLPDQYTDLPPGIKLWESKLALVGDEKREQQQYLYFQELSEFGSLLLKPKAMRNPALCAAPNIVIEVGLQAEQVASVMEKSKLWENVEIHLDYAQQMRWITASSSH | not soluble
MNLGTLVSETRNPQTMDLDALPTPELVKRFNEQDTLVAEAVKATLPDVARAVDAAAAALKSGGRIIYMGAGTSGRLGVLDASECPPTFGVPHGLVVGLIAGGPGALLKAVEGAEDSQQAGEDDLVALNLQEQDLVVGLAASGRTPYVIGGLRYARQSGCTTVAVSCNPDSPIAREANIAISPVVGPEALTGSTRLKSGTAQKMVLNMISTGAMVKFGKVYQNLMVDMKATNVKLVDRACRMVVEATGIGREEAEALLKQTDFEVKPAILMALTGLDAAAAREKLAAHQGFLRAALEH | not soluble
MERRLIFGTIASKMSLAPEADLDSLIIRNDSLSGAVIAAIMQEAGLRAVRKNRYVILQSDLEEAYATQVKTDNTVDKFDFYK | soluble
MASIGRAIVRVPKNVKKGQIFKVQMVIIHPMETGLRKDPKTGKKIPAHYITHVDLYFNGKLVTKINTSPGISKNPYFAIKMKAEEAGTLKIVYEDNKGGKWEKEVKINVA | not soluble
GPGSMLRLSASRRSAQNILHDIQAAVESRSIMATSSFAQRRSFLVALSEELHRNSEHIIHANRRDCDLFGRQQQQRGTPSVTIPPTLPSTSAATSLQPSSSLHGGPAGYPPFLGRPGHRVGDAQGISVAAENPATATPAPNAAEGSGASSPRRQSSLDYVAGASPVGSPDPNGAGGAAAGGRAAASPAGAGPALGETAAGSRATSTSGTAAPVSPSRWAARASSASLQLVPTAVSGHATRTEAGGGGGHLLITPDNHFLISPLRLDKLHTTIEYLLCQPDPIAIPPSCWLHDSAEGDSGAAANSLREQGSLGAAPGHNSPPPPSAAGSHAGCGRCTRRTDRLEVYELSVPLGMVGILSRFRPRISIDTVAMGLFAGNTVLLDGGVSLYNTNMALMSSVRRALTTAGLSPSAVVCVESYDAAHRSTSEWLQLSDCVDLAVVCGPPKLYQFASRYSTIPLMRATGQFSSVYVDQSASFEVALEVILNSKFQKLGAANAVTTVIVHSDFPRYTELVLALAAEGAVLLGDVTAQERVPDCVLELASEEEYQGLSQYGLRDAARTLCLKTVDSLAQALFFIESFGSKQSDCIVATDLEVCATYCRHVDTAVALVNASTRLSSGVPLGCGVDFAISTSKTHCRGPLTVEMMTTRKLVARSLSAHHGALR | not soluble
KDFLNPKYTLENFIVGEGNRLAYEVVKEALENLGSLYNPIFIYGSVGTGKTHLLQAAGNEAKKRGYRVIYSSADDFAQAMVEHLKKGTINEFRNMYKSVDLLLLDDVQFLSGKERTQIEFFHIFNTLYLLEKQIILASDRHPQKLDGVSDRLVSRFEGGILVEIELDNKTRFKIIKEKLKEFNLELRKEVIDYLLENTKNVREIEGKIKLIKLKGFEGLERKERKERDKLMQIVEFVANYYAVKVEDILSDKRNKRTSEARKIAMYLCRKVCSASLIEIARAFKRKDHTTVIHAIRSVEEEKKKDRKFKHLVGFLEKQAFDKIC | soluble
MSLCLSAQRLGEEPRVNSTGRYSGPMRVLHLASEVFPFSRSGGLGDVLGALPAVQARLGEDAEVTVLSPWYASLQGEPQELWRGEAWGEQAWLGELRQDGVRYLFLGLNEFQRPGLYHPDDVERFCAFGRAALPALDAVGVTPDVLHGHDWQAGLVVAHARLRGLRTAFSVHNLQYQGRWNLHEAAGWTGLPDWTFGPDGVEFFGDLNLMKAGLNFAGHVTTVSPTYAQEITTPQYGEGLEGLLVRLTHEGRLSGILNGLDQDRWNPRTDPDIAAYSDPAGKAGAVKALRQEFGLDDAPILATVSRLADQKGMDLLITALPELVRDWNVVVLGGGDPLLEAALTGWANHPRVAFASGMNEPLAHRIYAGAHAFAMPSRFEPCGLSQLIAMRYGTLPIVRETGGLADTVPPEVGFRFADATAPAFLQACREAQAAFQDPAQWQTRATRAMSLDFSWDGPARQYLELYRGLEGHHHHHH | soluble
MGEFIGNEEFQNFMKATGFIQEFTRRLLERSSKNIIKIPDNLSNVNQLTCLVKQFLREQQDLAVKVEKVQENQKNLSDFVKEKLTNCNCHVQLDVRNLLAKEMKLQDLRQDDGLDFSIKLPSTSSTDFTVSLNQVVDADAQQRFDLELLKMFGAGNIPHFQPPPDLYQHHHIPHTSQQVAQENLAMLANVPKLDDNNAYFDTFSPEKSGKRAKKRAAPSSAHEAQPNNGPYKCRDCEKTFRQKHGLNQHLLTHETNGAFECDGCGKRYSRQESVYRHQRSTPCTKYQNLTTVEHDDTGALF | not soluble
MNAACPDCGLKFQCLCSAVPSFHAPFQLSLLTHDNEWQRETNTGRWLVKSMAECQAYTWSRVAANTELQARLTQPNARSFLVYPSEESVELTDALRSLREDEIAHFIVLDATWQEARKMERKSPWLADVPRVHLTTDHVSAYRLRRNQQPGNLCTLEVGLMLLRHFNAEASAEALEQFYHYSMNAFKADKSGHRWIERLEHHHHHH | not soluble
MNNHFGKGLMAGLHAPYAYSAHHAVNFCSEYKRGFVLGFTHRMFEKTGDRQLSAWEAGILTRRYGLDKEMVMDFFKENHSGMAVRFFMAGYRLEG | not soluble
MIRITLHTYCISELFSGDLELFASKLEETSQNQKTYSTPRSSDFRAILPTYSTPRSSDFGAILPIHSTTRLSNLSSGHSMTLLDPLVEYHFATLPDNTRPFTLPSYSTPWSSIITHHHQHHSTGHSITSSQSTQIRTQPDKLSTRKRRGEDKVFGSGLDLHRIKKPISAHYLSMGRAIRLLARLLSFYFVLYK | soluble
MQEYTNHSDTTFALRNISFRVPGRTLLHPLSLTFPAGKVTGLIGHNGSGKSTLLKMLGRHQPPSEGEILLDAQPLESWSSKAFARKVAYLPQQLPPAEGMTVRELVAIGRYPWHGALGRFGAADREKVEEAISLVGLKPLAHRLVDSLSGGERQRAWIAMLVAQDSRCLLLDEPTSALDIAHQVDVLSLVHRLSQERGLTVIAVLHDINMAARYCDYLVALRGGEMIAQGTPAEIMRGETLEMIYGIPMGILPHPAGAAPVSFVY | soluble
MGSDKIHHHHHHMEPAELLKKIHQLPRLPKAVSELLEAVNNDQISIKDIAAKVSQDPLMSARVLRLANSSYFGANRKVASIDAAVVRLGMQTLRNLVIASAVVGAVPKAEGVDLGGFWGATFEVALYSQELAKHTHIPPEEAFTCGILHNIGDLFIATAAPDAAKAIDKAVMAGADKQETELKILDFDAATIGALLAQSWRFTDKLAAGIANQYQPKEAELYSDLAGLMYMAKALFSGWDEIEDDAITGWLSVQAMNAGLEMDMSDLAADLLKVKGSGLEMGQLLA | not soluble
MGSSHHHHHHDYDIPTTENLYFQGHMKIGIMSDTHDHLPNIRKAIEIFNDENVETVIHCGDFVSLFVIKEFENLNANIIATYGNNDGERCKLKEWLKDINEENIIDDFISVEIDDLKFFITHGHHQSVLEMAIKSGLYDVVIYGHTHERVFEEVDDVLVINPGECCGYLTGIPTIGILDTEKKEYREIVL | soluble
MRLRLALFSSLLAATFAITGCDQSSETPDNAATISIEHAQGTTLVPLNPQKVVILNPSVLDNADALHIKVAGVPQTSTHLPAFLSKYSGPEYMNTGTLFEPDYEALSQAKPDLIIAGGRAQDAYNKLSAIAPTIALDVDTQHFTQSLTQRTEQLASIFGKEEEAKTLLGNFSSQVNAIKQKSANAGSAMVLMISGGKMSAYTPGSRFGFIFDELGFTPAATFAESGRHGNVVTSEFILNANPDWLFVLDRDNAIGRTEGQSAQQVLDNPLIHKTKAWQNDRIVYLDSASLYIAGGVQSYTQLMNKVSAILDKPVSEQ | not soluble
GPGSMAGWASLGRSFRTPESRSEELVKKAIEGDALRIGSGDTVKHEEAVSPFAAKLFSNITGSQRYVLIAVRHTQPATVDESRKAAIFHHDIRQAGIAMGHDEILAVGHARLEPGEQFGWREPLMLFVQIILIDKTGFHPSTCSLDAMFRLVVEWAGSRIKRMQPPHCISHDGYFLGRSKVR | not soluble
MAHHHHHHMCGSCWAFAAIGNIEGQWFLAGNPLTRLSEQMLVSCDNTNSGCGGGSSLKAFKWIVDRNNGAVYTEESYPYHSCIGIKLPCTTSGHTVGATITGHVELPQDEAQIAAWLAVNGPVAVVVDASSWIFYTGGVLTNCVSKKLDHAVLLVGYNDSATAPYWIIKNSWTTQWGEDGYIRIAKGSNQCLVKEEASSAVVGGPGATPEPTTTTTTSAPGPSPSCFVQMSCTDAACIVGCENVTLPTGQCLLTTSGASAIVTCGAETLTEEVFLTSTHCSGPSVRSSVPLNKCNRLLRGSVEFFRGSSSSGRLADVDRQRRYQPYHSRHRRL | soluble
